Assay results reported in IntAct's records for PubMed 31515488.

B1: PIH1 domain-containing protein 2 (Homo sapiens), Q8WWB5 (parent)
chain: METSSKGLLTQVTQFWNLLDDLAQSDPEGYEKFIQQQLKEGKQLCAAPEPQLCLQTRILKPKEKILFINLCQWTRIPAPQSTTHPVPLTVGKPEDTTEISDAYTVIDVAYNPDVLHAAEKDQVKKNQLIQMAMKCIEEKFQFTLSHSYHITKFRIKGSIQRMKQNLMGIQTDSIDLREKMRRELTLGQIRSSTMSNPDHFPQLLLPKDQVSGKAVCLIEEISSTEIQVEMKMPAYELKIVHDHSEKPLKIELKVELPGINSVSLCDLSVSEDDLLIEVSEKYRLHLNLPKLIDTEMTTAKFIKEKSTLIITMPLV
partner: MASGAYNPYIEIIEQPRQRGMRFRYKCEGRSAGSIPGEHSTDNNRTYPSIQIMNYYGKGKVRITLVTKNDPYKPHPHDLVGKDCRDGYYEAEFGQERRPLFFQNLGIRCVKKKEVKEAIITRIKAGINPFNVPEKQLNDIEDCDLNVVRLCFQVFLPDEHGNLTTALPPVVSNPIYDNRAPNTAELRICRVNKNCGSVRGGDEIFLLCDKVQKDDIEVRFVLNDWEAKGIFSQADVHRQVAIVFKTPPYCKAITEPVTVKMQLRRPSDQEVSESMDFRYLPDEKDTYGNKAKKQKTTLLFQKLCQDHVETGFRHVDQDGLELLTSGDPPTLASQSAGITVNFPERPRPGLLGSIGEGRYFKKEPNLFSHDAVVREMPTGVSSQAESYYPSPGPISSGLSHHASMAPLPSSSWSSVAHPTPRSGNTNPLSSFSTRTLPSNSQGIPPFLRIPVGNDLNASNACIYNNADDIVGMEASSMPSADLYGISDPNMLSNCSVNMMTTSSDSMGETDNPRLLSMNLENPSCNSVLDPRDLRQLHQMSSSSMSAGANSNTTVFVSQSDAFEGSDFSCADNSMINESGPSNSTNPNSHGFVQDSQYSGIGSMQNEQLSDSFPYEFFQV
B2: Sodium channel modifier 1 (Homo sapiens), Q9BWG6 (parent)
chain: MSFKREGDDWSQLNVLKKRRVGDLLASYIPEDEALMLRDGRFACAICPHRPVLDTLAMLTAHRAGKKHLSSLQLFYGKKQPGKERKQNPKHQNELRREETKAEAPLLTQTRLITQSALHRAPHYNSCCRRKYRPEAPGPSVSLSPMPPSEVKLQSGKISREPEPAAGPQAEESATVSAPAPMSPTRRRALDHYLTLRSSGWIPDGRGRWVKDENVEFDSDEEEPPDLPLD
partner: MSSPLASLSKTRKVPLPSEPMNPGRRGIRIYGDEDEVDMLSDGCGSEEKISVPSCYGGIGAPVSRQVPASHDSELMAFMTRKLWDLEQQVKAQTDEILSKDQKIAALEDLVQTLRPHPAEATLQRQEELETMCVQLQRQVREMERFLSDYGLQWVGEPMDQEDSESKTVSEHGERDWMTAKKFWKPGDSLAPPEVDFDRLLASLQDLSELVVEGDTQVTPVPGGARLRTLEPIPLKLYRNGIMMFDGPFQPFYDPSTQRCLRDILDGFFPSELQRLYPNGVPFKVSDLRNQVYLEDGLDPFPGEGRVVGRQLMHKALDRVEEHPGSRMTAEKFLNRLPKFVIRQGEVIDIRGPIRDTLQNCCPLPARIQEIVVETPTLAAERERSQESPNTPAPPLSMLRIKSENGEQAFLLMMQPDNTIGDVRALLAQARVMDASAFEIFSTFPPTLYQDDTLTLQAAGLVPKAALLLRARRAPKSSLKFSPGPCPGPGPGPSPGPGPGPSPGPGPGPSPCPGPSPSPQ
B3: Stabilizer of axonemal microtubules 1 (Homo sapiens), Q8IYX7 (parent)
chain: MKTKCICELCSCGRHHCPHLPTKIYDKTEKPCLLSEYTENYPFYHSYLPRESFKPRREYQKGPIPMEGLTTSRRDFGPHKVAPVKVHQYDQFVPSEENMDLLTTYKKDYNPYPVCRVDPIKPRDSKYPCSDKMECLPTYKADYLPWNQPRREPLRLEHKYQPASVRFDNRTTHQDDYPIKGLVKTISCKPLAMPKLCNIPLEDVTNYKMSYVAHPVEKRFVHEAEKFRPCEIPFESLTTQKQSYRGLMGEPAKSLKPLARPPGLDMPFCNTTEFRDKYQAWPMPRMFSKAPITYVPPEDRMDLLTTVQAHYTCPKGAPAQSCRPALQIKKCGRFEGSSTTKDDYKQWSSMRTEPVKPVPQLDLPTEPLDCLTTTRAHYVPHLPINTKSCKPHWSGPRGNVPVESQTTYTISFTPKEMGRCLASYPEPPGYTFEEVDALGHRIYKPVSQAGSQQSSHLSVDDSENPNQRELEVLA
partner: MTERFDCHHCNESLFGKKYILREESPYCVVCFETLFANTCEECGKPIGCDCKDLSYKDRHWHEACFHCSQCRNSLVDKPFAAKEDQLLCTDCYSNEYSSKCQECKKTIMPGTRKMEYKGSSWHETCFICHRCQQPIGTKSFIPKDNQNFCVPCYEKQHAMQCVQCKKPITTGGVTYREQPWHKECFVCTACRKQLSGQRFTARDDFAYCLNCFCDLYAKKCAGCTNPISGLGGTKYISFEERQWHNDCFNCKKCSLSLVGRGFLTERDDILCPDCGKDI
B4: Break repair meiotic recombinase recruitment factor 1 (Homo sapiens), Q0VDD7 (parent)
chain: MTKRKKLRTSGEGLCPPKPLKNPRLGDFYGDPQSSMLGCLHHPEEPEGKLGPVPSTQQHGEEPGKAVSSSPDEETGSPCRLLRQPEKEPAPLPPSQNSFGRFVPQFAKSRKTVTRKEEMKDEDRGSGAFSLETIAESSAQSPGCQLLVETLGVPLQEATELGDPTQADSARPEQSSQSPVQAVPGSGDSQPDDPPDRGTGLSASQRASQDHLSEQGADDSKPETDRVPGDGGQKEHLPSIDSEGEKPDRGAPQEGGAQRTAGAGLPGGPQEEGDGVPCTPASAPTSGPAPGLGPASWCLEPGSVAQGSPDPQQTPSRMGREGEGTHSSLGCSSLGMVVIADLSTDPTELEERALEVAGPDGQASAISPASPRRKAADGGHRRALPGCTSLTGETTGESGEAGQDGKPPGDVLVGPTASLALAPGSGESMMGAGDSGHASPDTGPCVNQKQEPGPAQEEAELGGQNLERDLEGFRVSPQASVVLEHREIADDPLQEPGAQQGIPDTTSELAGQRDHLPHSADQGTWADSLAVELDFLLDSQIQDALDASDFEAPPEQLFPSGNKPGPCWPGPSSHANGDPVAVAKAQPRTFVGIQASEASRMEDATNVVRGLIVELSNLNRLIMGTHRDLEAFKRLNYRKTKLGGKAPLPYPSKGPGNIPRGDPPWREL
partner: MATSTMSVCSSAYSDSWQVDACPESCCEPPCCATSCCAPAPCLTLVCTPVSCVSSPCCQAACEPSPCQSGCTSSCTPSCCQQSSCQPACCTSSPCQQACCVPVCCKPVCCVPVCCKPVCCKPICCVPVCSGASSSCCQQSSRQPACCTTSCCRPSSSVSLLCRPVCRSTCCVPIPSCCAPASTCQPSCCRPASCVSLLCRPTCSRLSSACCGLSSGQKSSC
B5: Protein boule-like (Homo sapiens), Q8N9W6 (parent)
chain: MQTDSLSPSPNPVSPVPLNNPTSAPRYGTVIPNRIFVGGIDFKTNESDLRKFFSQYGSVKEVKIVNDRAGVSKGYGFVTFETQEDAQKILQEAEKLNYKDKKLNIGPAIRKQQVGIPRSSIMPAAGTMYLTTSTGYPYTYHNGVAYFHTPEVTSVPPPWPSRSVCSSPVMVAQPIYQQPAYHYQATTQYLPGQWQWSVPQPSASSAPFLYLQPSEVIYQPVEIAQDGGCVPPPLSLMETSVPEPYSDHGVQATYHQVYAPSAITMPAPVMQPEPIKTVWSIHY
partner: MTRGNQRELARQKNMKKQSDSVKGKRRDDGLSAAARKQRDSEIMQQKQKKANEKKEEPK

Variants of: B1
Settings: with rel_human REL

Variant	effect of a mutation on the interaction
A117V	with no effect
A102D	with no effect

Variants of: B2
Settings: with ubx11_human UBXN11, Q5T124

Variant	effect of a mutation on the interaction
A174V	with no effect

Variants of: B3
Settings: with fhl2_human FHL2, Q14192

Variant	effect of a mutation on the interaction
N464K	disrupting interaction strength
D118G	disrupting interaction strength

Variants of: B4
Settings: with kr103_human KRTAP10-3, P60369

Variant	effect of a mutation on the interaction
Q500R	with no effect
L155F	with no effect
N576S	with no effect
G267R	with no effect

Variants of: B5
Settings: with serf2_human SERF2, P84101

Variant	effect of a mutation on the interaction
M270I	with no effect
V78I	with no effect
